Assay results as given in article PMC4859522.

Experiments:
[1] = biological target: RSV clinical isolate A2001/2-20 fusion (F) protein (respiratory syncytial virus strain A2001/2-20); assay: co-IP; 293T cells co-transfected with EGFR and an RSV F construct; RIPA lysates 24 h after transfection; F precipitated with motavizumab on protein-A magnetic beads overnight at 4°C, washed in RIPA; blots for EGFR and RSV F, ratio of EGFR to F1
[2] = biological target: Epidermal growth factor receptor (UniProt P00533)

Epidermal growth factor receptor (from UniProt P00533 25-1210)
fold ratio of co-precipitated EGFR to F, against A2 F [1]: 2.8 fold

RSV clinical isolate A2001/2-20 fusion (F) protein (natural protein)
ratio of p-EGFR to EGFR by Western blot in serum-starved HEp-2 cells 24 h after transfection with 2–20 F, against A2 F [2]: 4.45 fold
